Our source for the binding values is PMC6135047.

For this data set, the target named is His-ToxR (Vibrio parahaemolyticus RIMD 2210633?) (UniProt Q05938). The experiment in a line: DNase I footprinting.
Chain of UniProt Q05938 (Q05938 1-176): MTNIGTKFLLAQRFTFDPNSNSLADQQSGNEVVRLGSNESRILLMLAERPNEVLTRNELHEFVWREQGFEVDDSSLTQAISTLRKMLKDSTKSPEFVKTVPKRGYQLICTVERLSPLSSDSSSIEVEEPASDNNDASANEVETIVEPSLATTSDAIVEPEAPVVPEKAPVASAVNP

For “CAGAGTGACCCAGAGCCGTTTTGATGCTGTTATTTTTCATCATTCGGCGCGATTAATATGCTAAAGATGGTCGGATTTTTTTCGTTTTAAGACGTTTGAAAACAACAAAGCTCAGCAATGTGCTGAGCTTTGTGTTCGATTGATTTGGCGGTGATGCCCTACTCTGGTG (double strand) [VP1687 footprint probe]”, the binding result is “binds”. Then “CAGATTGCTGAATATCGGTGATGTATGAGAAATCGTTCAATGTAAAAAATATGCGCAATGATTGATGCTGGGAGAATAGAAAGGATGAGGTGGTATTTATAGTGAATATTGGTCGGGAGTTTTTAGAAAACTGAAAACGCCCTAAAAAAACACGTCTGATTTTGACAGCCTGATAAAAACGCACTTCATATAATTCGCTTGTATTGTACGAAAGGAGTGCAAGTGAATGAGTATTATCAAT (double strand) [VP1667 (vopN) footprint probe]”, with “binds”; and “TTTCAGGGACGACTTTGTGATTTAGCCCCATGAAATCACCACACTAAGATGTCATTTAACATGTGGCTGACAAATGTAAATTCAAGGTCAATATTGCTAAAAACGGTGTTTTTTTAGAAAAATTTAATTATCCTACCCCCCTAAAAGCATCTAAAACGTCGCGTATCTCCCATGCGCAAACGTAATTTTGTGATATAAATCACCATAATTACAACATCATCCATCTAAGAAGAACTAA (double strand) [toxR footprint probe]”, with “binds”.
